In patent US20250304936A1 (KYUNGPOOK NATIONAL UNIVERSITY INDUSTRY ACADEMIC COOPERATION …, published 2025):

Biological target: the molecule itself
Assay: size exclusion chromatography (Superdex 200 Increase 10/300 GL); self-association of the chain: 92.1 kDa measured against 40.9 kDa calculated for the monomer
Description: (A) Molecular sieve chromatography profiling of purified GH117A α-NABH was performed using a Superdex 200 Increase 10/300 GL column equilibrated with 40 mM Tris-HCl (pH 8.0) containing 150 mM NaCl. At this time, a protein solution containing 500 μg GH117A α-NABH was injected into the column, and the column was eluted at 4° C. at a flow rate of 0.3 mL/min, and the protein elution profile was monitored by measuring absorbance at 280 nm. […]
Molecular sieve chromatography was performed using a Superdex 200 Increase 10/300 GL column (GE Healthcare) equilibrated with 40 mM tris-HCl (pH 8.0) and 150 mM NaCl. Purified GH117A α-NABH (0.5 mg/0.5 mL) was injected into the column, and molecular sieve chromatography was performed under conditions of 4° C. and a flow rate of 0.3 mL/min, and protein elution was measured at a wavelength of 280 nm. For the column, a standard curve of retention volume versus protein molecular weight was obtained using size markers such as ferritin (440 kDa), aldolase (158 kDa), ovalbumin (44 kDa), and ribonuclease A (13.7 kDa), and molecular weight of the purified GH117A α-NABH was measured using the curve.

B1: recombinant His-tagged GH117A α-neoagarobiose hydrolase (α-NABH) of Cellvibrio sp. KY-GH-1 (enzyme)
chain: MGDLPEKKLSKASLRAIERGYDQKNADWVFEFDVKPLGGDFAYQEGVIRRDPSAVIFVDGLYHVWYTKGEGETVGFGSANPEDKVFPWDKTEVWHATSSDGWDWKEQGAAIVAGAPGSYDDRAVFTPEVLAHEGRYYLVYQTVKAPYLNRTKECIALASADSPYGPWVKSPAPILTPADNGVWDGDEDNRFNCKIRGDFDSHKVHDPCLMFYQNKFYLYYKGEIMGERMNFGGREIKHGVAIADKIEGPYVKSEFNPITNSGHEVVVWHVNGGIASLLTTDGPEKNTCQWSPDGINFDIMAHIKGAPEALGLYRDPAADIQDPMAGLAWGLCHKYDSSWNWNYICRFKTRRQILDPGTFQNVAS
notes: The entry under measurements means that the chain associates with itself; also called GH117A α-NABH; GH117 A α-NABH; not shown: C-terminal 6x His tag from vector pET-30a (cloned NdeI/XhoI)
  binding result: binds
